The record followed here is publication PMC2784006.

For this assay, the target named is HA-tagged Synaptic Cell Adhesion Molecule 1 (HA-SynCAM1), full length (mouse). Kind of assay: Cell Adhesion Molecule / Receptor Recruitment Assay.
Sequence of HA-tagged Synaptic Cell Adhesion Molecule 1 (HA-SynCAM1), full length (mouse) (Q8R5M8 48-456): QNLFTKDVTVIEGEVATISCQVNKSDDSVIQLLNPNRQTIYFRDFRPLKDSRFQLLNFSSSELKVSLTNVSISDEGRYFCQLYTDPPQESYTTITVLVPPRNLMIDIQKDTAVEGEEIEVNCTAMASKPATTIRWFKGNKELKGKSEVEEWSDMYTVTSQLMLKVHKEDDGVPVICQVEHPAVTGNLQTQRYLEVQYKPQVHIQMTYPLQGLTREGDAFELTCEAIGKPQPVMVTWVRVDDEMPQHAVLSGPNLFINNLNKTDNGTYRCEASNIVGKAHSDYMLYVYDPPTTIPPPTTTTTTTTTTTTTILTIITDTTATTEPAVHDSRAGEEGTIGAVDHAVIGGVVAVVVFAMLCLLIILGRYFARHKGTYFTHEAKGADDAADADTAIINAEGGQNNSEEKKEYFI

In turn, “GFP-tagged erythrocyte protein band 4.1-like 3 (protein 4.1B), full length (4.1B-GFP) (natural protein)” yielded a % increase in fluorescence intensity at microspheres relative to background of 114%.
As for “Syntenin1-GFP (from UniProt O00560 1-298) (natural protein)”, the % increase in fluorescence intensity at microspheres relative to background was 91.8%.
For the molecule “protein 4.1N, GFP tagged (4.1N-GFP) (from UniProt Q9Z2H5 1-879) (natural protein)”, the % increase in fluorescence intensity at microspheres relative to background is 100%.

B1: calcium/calmodulin-dependent serine protein kinase (CASK) (natural protein)
chain: MADDDVLFEDVYELCEVIGKGPFSVVRRCINRETGQQFAVKIVDVAKFTSSPGLSTEDLKREASICHMLKHPHIVELLETYSSDGMLYMVFEFMDGADLCFEIVKRADAGFVYSEAVASHYMRQILEALRYCHDNNIIHRDVKPHCVLLASKENSAPVKLGGFGVAIQLGESGLVAGGRVGTPHFMAPEVVKREPYGKPVDVWGCGVILFILLSGCLPFYGTKERLFEGIIKGKYKMNPRQWSHISESAKDLVRRMLMLDPAERITVYEALNHPWLKERDRYAYKIHLPETVEQLRKFNARRKLKGAVLAAVSSHKFNSFYGDPPEELPDFSEDPTSSGLLAAERAVSQVLDSLEEIHALTDCSEKDLDFLHSVFQDQHLHTLLDLYDKINTKSSPQIRNPPSDAVQRAKEVLEEISCYPENNDAKELKRILTQPHFMALLQTHDVVAHEVYSDEALRVTPPPTSPYLNGDSPESANGDMDMENVTRVRLVQFQKNTDEPMGITLKMNELNHCIVARIMHGGMIHRQGTLHVGDEIREINGISVANQTVEQLQKMLREMRGSITFKIVPSYRTQSSSCERDSPSTSRQSPANGHSSTNNSVSDLPSTTQPKGRQIYVRAQFEYDPAKDDLIPCKEAGIRFRVGDIIQIISKDDHNWWQGKLENSKNGTAGLIPSPELQEWRVACIAMEKTKQEQQASCTWFGKKKKQYKDKYLAKHNAVFDQLDLVTYEEVVKLPAFKRKTLVLLGAHGVGRRHIKNTLITKHPDRFAYPIPHTTRPPKKDEENGKNYYFVSHDQMMQDISNNEYLEYGSHEDAMYGTKLETIRKIHEQGLIAILDVEPQALKVLRTAEFAPFVVFIAAPTITPGLNEDESLQRLQKESDVLQRTYAHYFDLTIINNEIDETIRHLEEAVELVCTAPQWVPVSWVY
With B1, the % increase in fluorescence intensity at microspheres relative to background is 123%.
